# Laboratory results reported in PMC5388806.
# Biological target: MtrR-MBP (Neisseria gonorrhoeae) (UniProt P39897)
# Experiment: competition EMSA
# Conditions: 30 ul reaction buffer (composition not stated), room temperature; 6% native PAGE at 4 C; 2 ug MtrR-MBP or 1 ug GdhR-His
# MtrR-MBP (Neisseria gonorrhoeae), sequence (P39897 whole entry): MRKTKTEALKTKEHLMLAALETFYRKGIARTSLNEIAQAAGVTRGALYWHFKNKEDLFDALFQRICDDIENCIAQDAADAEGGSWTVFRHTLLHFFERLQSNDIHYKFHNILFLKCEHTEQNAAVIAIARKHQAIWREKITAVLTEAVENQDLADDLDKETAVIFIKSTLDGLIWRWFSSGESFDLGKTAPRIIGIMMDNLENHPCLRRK
row,Sequence,binding
1,TGCCGTTGACGGCGGGAACGGCGTGTCATTAGAATCCGCCCTGATTGGCCAGTCCAATTTGATGTTTGATGTATTTCGGAAGGGTTCTGCAGGGAATCTTTATAAAGGAGGAGTGATGAAAC (double strand) [R4/R2 (gdhR promoter and downstream)],binds
2,CCGTTCCCGCCGTCAACGGCACTTACCTCGCACCGCCCCCGAAACACAGGAAAAAACTACACCAAACTACAATTTTTGTTCATGCAAATATTTGTTTTAACGGGATTTAAATGAAAGCTCCGATTCAAATCTGCCGAACCGCCCAAAAATATATTGACCTGAATATTAAAGTTTCGTAAAGTAATGCAACGTTGCTTTAATTGGTTTGACCACTATTGCCGACGATTAGAAAAATATTTTCGGAGATGTTCAATTATGGAAACTTGGGTTCAAAACTACACGGCAATCGGCG (double strand) [R3/R5 (upstream of gdhR promoter)],no binding
